Patent US20190218304A1, “POTENTIATING THE EFFECT OF ATP RELEASE” (INNATE PHARMA, priority 2017, published 2019)

What was measured:
[1] = system: CD39 mutants (Table 1) expressed in Hek-293T cells; assay: Epitope mapping: flow cytometry binding to CD39 mutants in Hek-293T cells; design: species or system human
Method: CD39 mutants were generated by PCR. The sequences amplified were run on agarose gel and purified using the Macherey Nagel PCR Clean-Up Gel Extraction kit (reference 740609). The purified PCR products generated for each mutant were then ligated into an expression vector, with the ClonTech InFusion system. The vectors containing the mutated sequences were prepared as Miniprep and sequenced. After sequencing, the vectors containing the mutated sequences were prepared as Midiprep using the Promega PureYield™ Plasmid Midiprep System. HEK293T cells were grown in DMEM medium (Invitrogen), transfected with vectors using Invitrogen's Lipofectamine 2000 and incubated at 37° C. in a […] incubator for 48 hours prior to testing for transgene expression. The targeted amino acid mutations in the table 1 below are shown using numbering of SEQ ID NO: 1.
In order to define the epitopes of anti-CD39 antibodies, we designed CD39 mutants defined by substitutions of amino acids exposed at the molecular surface over the surface of CD39.
Mutant 5 contains amino acid substitutions at residues Q96, N99, E143 and R147.
Mutants were transfected in Hek-293T cells, as shown in the table 1, using numbering of SEQ ID NO: 1. […] Mutant 19 includes substitutions at residues R138, M139 and E142.
Mutants were transfected in Hek-293T cells, as shown in the table 1, using numbering of SEQ ID NO: 1. […]

[2] = target: T1, soluble recombinant human CD39 protein (Homo sapiens, UniProt P49961); assay: Inhibition of the enzymatic activity of soluble CD39 (Cell Titer Glo); format: biochemical; settings: result in words
T1 construct: made in house; host or cells: CHO cells
T1 sequence (P49961 with tags, fused parts or gaps): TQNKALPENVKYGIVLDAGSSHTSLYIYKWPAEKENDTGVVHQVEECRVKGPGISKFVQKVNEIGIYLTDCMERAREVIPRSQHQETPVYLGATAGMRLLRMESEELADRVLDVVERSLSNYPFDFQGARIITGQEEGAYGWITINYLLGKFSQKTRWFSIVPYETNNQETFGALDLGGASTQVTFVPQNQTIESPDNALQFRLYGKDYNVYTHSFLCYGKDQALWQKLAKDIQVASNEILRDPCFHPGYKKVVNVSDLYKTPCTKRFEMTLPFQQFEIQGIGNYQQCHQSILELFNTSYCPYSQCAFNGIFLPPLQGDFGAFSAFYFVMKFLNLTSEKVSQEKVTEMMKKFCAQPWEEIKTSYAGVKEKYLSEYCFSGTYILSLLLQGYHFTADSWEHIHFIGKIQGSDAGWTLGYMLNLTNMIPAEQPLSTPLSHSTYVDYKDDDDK
Method: The inhibition by antibodies of the enzymatic activity of soluble CD39 protein produced was evaluated using Cell Titer Glo™ (Promega, reference G7571) that allows assessment of ATP hydrolysis through use of a reagent that generates a luminescent signal proportional to the amount of ATP present. In this way, inhibition of the soluble-CD39-meidatd ATP hydrolysis can be assessed. Briefly, dose ranges of anti-CD39 antibodies from 100 μg/ml to 6×10^−3 μg/ml were incubated with 400 ng/ml of soluble recombinant human CD39 protein having the amino acid sequence described in the Methods section (SEQ ID NO: 39), for 1 h at 37° C. 20 μM ATP was added to the plates for 30 additional minutes at 37° C. before addition of CTG (Cell Titer Glo) reagent. Emitted light was quantified using an Enspire™ luminometer after a short incubation period of 5 min in the dark. Anti-CD39 antibody efficacy was determined by comparing emitted light in presence of antibody with ATP alone (maximal light emission) and ATP together with soluble CD39 protein (minimal light emission).

inhibition of the enzymatic (ATPase) activity of soluble CD39 protein [2]: inhibition of soluble CD39
B1: I-399: anti-CD39 antibody, VH SEQ ID NO: 27, VL SEQ ID NO: 28 (antibody, listed as Mus musculus, V domains shown)
VH: PVQLQQPGAEVVMPGASVKLSCKASGYTFTSFWMNWMRQRPGQGLEWIGEIDPSDFYTNSNQRFKGKATLTVDKSSSTAYMQLSSLTSEDSAVYFCARGDFGWYFDVWGTGTSVTVSS
VL: EIVLTQSPTTMTSSPGEKITFTCSASSSINSNYLHWYQQKPGFSPKLLIYRTSNLASGVPTRFSGSGSGTSYSLTIGTMEAEDVATYYCQQGSSLPRTFGGGTKLEIK
binding to cells expressing mutant 11 of CD39 ([1]; mutant 11: N371K, L372K, E375A, K376G, V377A and insertion 377V): loss of binding
binding to the other CD39 mutants of Table 1 ([1]; remaining mutants of the 20 generated): without loss of binding to any of the other 20 mutants
